Results published in the supplement of paper PMC9876800.

Test system: peptide library, one residue held at a place counted from the S/T acceptor
Assay: relative phosphorylation of the sub-library (ratio to the mean residue at this position); higher = residue favoured
Outline: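 Relative sub-library phosphorylation, a ratio to the mean residue at that position, was obtained by phosphorimaging and densitometry of spots on streptavidin membranes. Before capture, purified recombinant kinases were incubated for 90 min under kinase-specific conditions with 50 μM biotinylated degenerate peptide sub-libraries and 50 μM ATP spiked with γ-32P-ATP. Each sub-library fixed one residue at one position around a central Ser/Thr.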

MAPK9, construct: Full length, human (from UniProt P45984)
relative phosphorylation
Conditions | at +1 | at +2 | at +3 | at +4 | at -1 | at -2 | at -3 | at -4 | at -5
A fixed | 0.338 | 0.988 | 1.43 | 1.17 | 1.16 | 2.09 | 1.24 | 1.17 | 1.14
D fixed | 0.147 | 0.96 | 1.38 | 1.21 | 0.686 | 0.686 | 1.13 | 1.19 | 0.957
E fixed | 0.151 | 0.694 | 1.34 | 1.27 | 0.862 | 0.379 | 1.19 | 1.09 | 0.869
F fixed | 0.358 | 0.75 | 0.781 | 0.805 | 0.68 | 0.717 | 0.814 | 0.965 | 0.946
G fixed | 0.646 | 1.33 | 1.53 | 1.32 | 1.28 | 0.653 | 1.21 | 1.14 | 1.15
H fixed | 0.195 | 0.997 | 0.985 | 1.02 | 1 | 0.494 | 0.95 | 0.878 | 0.924
I fixed | 0.433 | 1.24 | 0.638 | 0.879 | 0.695 | 1.28 | 0.76 | 0.861 | 0.801
K fixed | 0.164 | 0.632 | 0.648 | 0.795 | 1.09 | 0.545 | 0.915 | 1.08 | 1.34
L fixed | 0.462 | 1.18 | 0.879 | 0.787 | 1.37 | 2.05 | 1.08 | 1 | 0.923
M fixed | 0.314 | 1.75 | 0.959 | 0.913 | 1.4 | 1.28 | 0.93 | 1.04 | 0.801
N fixed | 0.17 | 1.07 | 0.973 | 0.934 | 0.854 | 0.494 | 1.07 | 0.886 | 0.94
P fixed | 12.4 | 0.721 | 0.886 | 1.66 | 1.28 | 2.58 | 1.16 | 1.24 | 1.38
Q fixed | 0.193 | 1.06 | 1.01 | 1.04 | 1.36 | 0.741 | 1.07 | 1.06 | 1.02
R fixed | 0.187 | 0.803 | 0.908 | 0.802 | 1.25 | 0.635 | 1.09 | 0.938 | 1.02
V fixed | 0.339 | 1.4 | 0.845 | 0.869 | 0.76 | 1.32 | 0.768 | 0.365 | 0.833
W fixed | 0.303 | 0.69 | 0.951 | 0.817 | 0.533 | 0.543 | 0.729 | 1.02 | 0.886
Y fixed | 0.239 | 0.745 | 0.859 | 0.712 | 0.743 | 0.511 | 0.875 | 1.09 | 1.07
pThr fixed | 0.495 | 2.23 | 1.06 | 1.16 | 0.432 | 0.933 | 0.957 | 0.975 | 0.996
pTyr fixed | 0.347 | 0.987 | 1.07 | 0.719 | 0.468 | 0.429 | 0.778 | 0.808 | 0.836
